US11549123B2, “Plant EPSP synthases and methods of use” (PIONEER HI-BRED INTERNATIONAL, INC., priority 2015, dated 2023)
Where a chain is given by its changes, count along the chain named. Names and notes keep the numbering of the source.

Assays:
[1] = substrate: C=C(OP(=O)(O)O)C(=O)O; assay: EPSPS substrate saturation kinetics, 868-H6; assay type: biochemical, Zea mays; conditions: other: PEP varied; pH 7.0
Experimental: (§1) EPSPS activity was determined by quantifying the phosphate generated from the EPSPS reaction. Release of inorganic phosphate was coupled to reaction with 2-amino-6-mercapto-7-methylpurine ribonucleoside, catalyzed by purine-nucleoside phosphorylase (M R Webb, Proc. Natl. Acad. Sci. 89:4884-4887, 1992). The absorbance change that occurs was monitored at 360 nm, where the extinction is 11,200 M^−1 cm^−1, with a Spectramax plate reader (Molecular Devices). To determine kinetic parameters, the varied substrate was present at seven concentrations (the eighth being the blank, containing no substrate) ranging from 4 to 400 uM and the unvaried substrate present at saturation. Six microliters of 50-fold concentrated stock solutions of the varied substrate were placed in the wells of the 96-well assay plate and reactions were started with the addition of a mixture containing 25 mM Hepes, pH 7, 100 mM KCl, 0.3 mM 2-amino-6-mercapto-7-methylpurine ribonucleosde, 1 uM (1 unit/ml) purine-nucleoside phosphorylase (Sigma N8264) and 200 uM of the non-varied substrate. Reactions were monitored with a Spectramax plate reader. The Michaelis-Menten kinetics protocol of the Spectramax software was customized for the substrate concentrations used. The software returns values of KM and Vmax using the Lineweaver-Burke transformation of the Michaelis-Menten equation. To determine kcat, Vmax (uM/min) was divided by the enzyme concentration (uM). […] KI was then calculated from the following form of the Michaelis-Menten equation for competitive inhibition: KI=KM[I]/(KM app−KM) KM approximates the dissociation constant of the enzyme-substrate complex while kcat is the rate of conversion of substrate to product when the substrate concentration is saturating. kcat/KM is a widely accepted parameter for catalytic efficiency when substrate concentration is low (˜KM). […] The parameter kcat/KM×KI is used to quantify both catalytic efficiency and insensitivity and thus the overall fitness of the enzyme.
(§2) From the functional diversity identified for each, combinatorial libraries were constructed and screened. […]

[2] = substrate: C=C(OP(=O)(O)O)C(=O)O; assay: EPSPS substrate saturation kinetics, 123-C1; assay type: biochemical, Zea mays; conditions: other: PEP varied; pH 7.0
Experimental: as §1, with “enzyme. […]” for “enzyme.”

[3] = substrate: C=C(OP(=O)(O)O)C(=O)O; assay: EPSPS substrate saturation kinetics, 771-C2; assay type: biochemical, Zea mays; conditions: other: PEP varied; pH 7.0
Experimental: as §1, §2

[4] = substrate: C=C(OP(=O)(O)O)C(=O)O; assay: EPSPS substrate saturation kinetics, native sorghum; assay type: biochemical, Sorghum halepense; conditions: other: PEP varied; pH 7.0
Experimental: as §1, with “Six microliters of 50-fold concentrated stock solutions of the varied substrate were placed in the wells of the 96-well assay plate and reactions were started with the addition of a mixture containing 25 mM Hepes, pH 7, 100 mM KCl, 0.3 mM 2-amino-6-mercapto-7-methylpurine ribonucleosde, 1 uM (1 unit/ml) purine-nucleoside phosphorylase (Sigma N8264) and 200 uM of the non-varied substrate.” left out, “reader.” for “reader. The Michaelis-Menten kinetics protocol of the Spectramax software was customized for the substrate concentrations used. The software returns values of KM and Vmax using the Lineweaver-Burke transformation of the Michaelis-Menten equation. To determine kcat, Vmax (uM/min) was divided by the enzyme concentration (uM).”
(§3) Native EPSPS amino acid sequences of rice (Oryza sativa) (SEQ ID NO:7), sorghum (Sorghum halepense) (SEQ ID NO:8), and sunflower (Helianthus annus) (SEQ ID NO:9) including the chloroplast transit peptide sequences were assembled and analyzed for mapping the corresponding amino acid mutations from the maize 868-H6. […]
(§4) ChloroP Prediction Server (Emanuelsson, O. et al. 1999. Protein Sci. 8(5):978-84) was used to approximate the amino terminus of the mature EPSPS proteins. […] The synthetic genes were cloned into a plasmid vector and expressed, purified and analyzed as described in Example 1.

[5] = substrate: C=C(OP(=O)(O)O)C(=O)O; assay: EPSPS substrate saturation kinetics, sorghum H6; assay type: biochemical, Sorghum halepense; conditions: other: PEP varied; pH 7.0
Experimental: as §1, with “Six microliters of 50-fold concentrated stock solutions of the varied substrate were placed in the wells of the 96-well assay plate and reactions were started with the addition of a mixture containing 25 mM Hepes, pH 7, 100 mM KCl, 0.3 mM 2-amino-6-mercapto-7-methylpurine ribonucleosde, 1 uM (1 unit/ml) purine-nucleoside phosphorylase (Sigma N8264) and 200 uM of the non-varied substrate.” left out, “reader.” for “reader. The Michaelis-Menten kinetics protocol of the Spectramax software was customized for the substrate concentrations used. The software returns values of KM and Vmax using the Lineweaver-Burke transformation of the Michaelis-Menten equation. To determine kcat, Vmax (uM/min) was divided by the enzyme concentration (uM).”
as §3, §4

[6] = substrate: C=C(OP(=O)(O)O)C(=O)O; assay: EPSPS substrate saturation kinetics, rice H6; assay type: biochemical, Oryza sativa; conditions: other: PEP varied; pH 7.0
Experimental: as §1, with “Six microliters of 50-fold concentrated stock solutions of the varied substrate were placed in the wells of the 96-well assay plate and reactions were started with the addition of a mixture containing 25 mM Hepes, pH 7, 100 mM KCl, 0.3 mM 2-amino-6-mercapto-7-methylpurine ribonucleosde, 1 uM (1 unit/ml) purine-nucleoside phosphorylase (Sigma N8264) and 200 uM of the non-varied substrate.” left out, “reader.” for “reader. The Michaelis-Menten kinetics protocol of the Spectramax software was customized for the substrate concentrations used. The software returns values of KM and Vmax using the Lineweaver-Burke transformation of the Michaelis-Menten equation. To determine kcat, Vmax (uM/min) was divided by the enzyme concentration (uM).”
as §3, §4

[7] = substrate: C=C(OP(=O)(O)O)C(=O)O; assay: EPSPS substrate saturation kinetics, sunflower H6; assay type: biochemical; conditions: other: PEP varied; pH 7.0
Experimental: as §1, with “Six microliters of 50-fold concentrated stock solutions of the varied substrate were placed in the wells of the 96-well assay plate and reactions were started with the addition of a mixture containing 25 mM Hepes, pH 7, 100 mM KCl, 0.3 mM 2-amino-6-mercapto-7-methylpurine ribonucleosde, 1 uM (1 unit/ml) purine-nucleoside phosphorylase (Sigma N8264) and 200 uM of the non-varied substrate.” left out, “reader.” for “reader. The Michaelis-Menten kinetics protocol of the Spectramax software was customized for the substrate concentrations used. The software returns values of KM and Vmax using the Lineweaver-Burke transformation of the Michaelis-Menten equation. To determine kcat, Vmax (uM/min) was divided by the enzyme concentration (uM).”
as §3, §4

[8] = substrate: C=C(OP(=O)(O)O)C(=O)O; assay: Substrate saturation kinetic analysis with glyphosate, Zm-T103A; assay type: biochemical, Zea mays; conditions: other: substrate saturation
[9] = substrate: C=C(OP(=O)(O)O)C(=O)O; assay: Substrate saturation kinetic analysis with glyphosate, Zm-A189T; assay type: biochemical, Zea mays; conditions: other: substrate saturation
[10] = substrate: C=C(OP(=O)(O)O)C(=O)O; assay: Substrate saturation kinetic analysis with glyphosate, Zm-T103I; assay type: biochemical, Zea mays; conditions: other: substrate saturation

B1: Zea mays EPSPS variant 868-H6 (A2R, A4W, A72Q, K84R, L98C, G102A, I208L, T279A, E302S, T361S, E391G, D402G, A416G, V438R, T441Q), SEQ ID NO:5 (Zea mays; … (protein)
chain: MRGWEEIVLQPIKEISGTVKLPGSKSLSNRILLLAALSEGTTVVDNLLNSEDVHYMLGALRTLGLSVEADKQAKRAVVVGCGGRFPVEDAKEEVQLFCGNAATAMRPLTAAVTAAGGNATYVLDGVPRMRERPIGDLVVGLKQLGADVDCFLGTDCPPVRVNGIGGLPGGKVKLSGSISSQYLSALLMAAPLALGDVEIEIIDKLISLPYVEMTLRLMERFGVKAEHSDSWDRFYIKGGQKYKSPKNAYVEGDASSASYFLAGAAITGGTVTVEGCGTASLQGDVKFAEVLEMMGAKVTWTSTSVTVTGPPREPFGRKHLKAIDVNMNKMPDVAMTLAVVALFADGPTAIRDVASWRVKESERMVAIRTELTKLGASVEEGPDYCIITPPGKLNVTAIDTYGDHRMAMAFSLAACGEVPVTIRDPGCTRKTFPDYFDRLSQFVKN
Protein B1 has a Km [1] of 24.0 µM, a kcat [1] of 6.43 s⁻¹ and a kcat/Km [1] of 268000 M⁻¹ s⁻¹.

B2: Zea mays EPSPS variant 123-C1 (A2R, A4W, K84R, L98C, G102A, I208L, K243E, E391P, D402G), SEQ ID NO:6 (Zea mays; A1R/A3W/D401G/E390P/G101A/I207L/K242E/K83R/L97C) (protein)
chain: B1 chain with Q72A, K243E, A279T, S302E, S361T, G391P, G416A, R438V, Q441T
For B2, the Km [2] was 24.2 µM, the kcat [2] was 7.3 s⁻¹ and the kcat/Km [2] was 302000 M⁻¹ s⁻¹.

B3: Zea mays EPSPS variant 771-C2 (A4W, H54M, L98C, G102A, K173R, I208L, K243E, E302S, T361S, E391P, D402G, A416G, V438R, S440R, T441Q, F442V), SEQ ID NO:4 (Zea … (protein)
chain: B1 chain with R2A, H54M, Q72A, R84K, K173R, K243E, A279T, G391P, S440R, F442V
B3 showed a Km [3] of 21.0 µM, a kcat [3] of 5.8 s⁻¹ and a kcat/Km [3] of 275000 M⁻¹ s⁻¹.

B4: Sorghum halepense EPSPS, native, SEQ ID NO:8 (Sorghum halepense) (protein)
chain: AAGAEEIVLQPIKEISGTVKLPGSKSLSNRILLLAALSEGTTVVDNLLNSEDVHYMLGALNTLGLSVEADKVAKRAVVVGCGGKFPVEDAKEEVQLFLGNAGTAMRPLTAAVTAAGGNATYVLDGVPRMRERPIGDLVVGLKQLGADVDCFLGTDCPPVRINGIGGLPGGKVKLSGSISSQYLSALLMAAPLALGDVEIEIIDKLISIPYVEMTLRLMERFGVKAEHSDSWDRFYIKGGQKYKSPKNAYVEGDASSASYFLAGAAITGGTVTVEGCGTTSLQGDVKFAEVLEMMGAKVTWTETSVTVTGPPRQPFGRKHLKAIDVNMNKMPDVAMTLAVVALFADGPTAIRDVASWRVKETERMVAIRTELTKLGASVEEGPDYCIITPPEKLNVTAIDTYDDHRMAMAFSLAACAEVPVTIRDPGCTRKTFPDYFDVLSTFVKN
B4 gave a Km [4] of 17.4 µM, a kcat [4] of 50.9 s⁻¹ and a kcat/Km [4] of 2.93e+06 M⁻¹ s⁻¹.

B5: Sorghum halepense EPSPS with 868-H6 mutations, SEQ ID NO:12 (Sorghum halepense; … (protein)
chain: B1 chain with M1A, R61N, V161I, E313Q
B5 was tested, and the Km [5] was 30.6 µM, the kcat [5] was 5.28 s⁻¹ and the kcat/Km [5] was 167000 M⁻¹ s⁻¹.

B6: Oryza sativa EPSPS with 868-H6 mutations, SEQ ID NO:11 (Oryza sativa; A482G/A67R/A69W/D368S/D468G/E457G/G168A/I274L/K149R/L164C/T345A/T427S/T507Q/V137Q/V504R) (protein)
chain: APARKWEEIVLQPIREISGAVQLPGSKSLSNRILLLSALSEGTTVVDNLLNSEDVHYMLEALKALGLSVEADKQAKRAVVVGCGGRFPVEKDAKEEVQLFCGNAATAMRPLTAAVTAAGGNATYVLDGVPRMRERPIGDLVVGLKQLGADVDCFLGTECPPVRVKGIGGLPGGKVKLSGSISSQYLSALLMAAPLALGDVEIEIIDKLISLPYVEMTLRLMERFGVKAEHSDSWDRFYIKGGQKYKSPGNAYVEGDASSASYFLAGAAITGGTVTVQGCGTASLQGDVKFAEVLEMMGAKVTWTSTSVTVTGPPREPYGKKHLKAVDVNMNKMPDVAMTLAVVALFADGPTAIRDVASWRVKESERMVAIRTELTKLGASVEEGPDYCIITPPGKLNITAIDTYGDHRMAMAFSLAACGDVPVTIRDPGCTRKTFPNYFDRLSQFVRN
Protein B6 has a Km [6] of 28.9 µM, a kcat [6] of 4.88 s⁻¹ and a kcat/Km [6] of 167000 M⁻¹ s⁻¹.

B7: Helianthus annuus EPSPS with 868-H6 mutations, SEQ ID NO:10 (Helianthus annuus; … (protein)
chain: ATTRKWSTAPEEIVLKPIKEISGTVNLPGSKSLSNRILLLAALAEGTTVVDNLLNSDDVHYMLGALRALGLNVEENGQIKRATVEGCGGRFPVGKEAKDEIQLFCGNAATAMRPLTAAVTAAGGNSSYILDGVPRMRERPIGDLVTGLKQLGADVDCFLGTNCPPVRVAANGGLPGGKVKLSGSISSQYLTALLMAAPLALGDVEIEIIDKLISLPYVEMTLKLMERFGVSVEHSDSWDKFYVRGGQKYKSPGNAYVEGDASSASYFLAGAAITGGTVTVEGCGTASLQGDVKFAEVLGQMGAEVTWTSNSVTVRGPPRNASGRGHLRPVDVNMNKMPDVAMTLAVVALYADGPTAIRDVASWRVKESERMIAICTELRKLGATVEEGPDYCVITPPGKLNVTAIDTYGDHRMAMAFSLAACGDVPVTIKDPGCTRKTFPDYFERLEQFTKH
Protein B7 has a Km [7] of 37.2 µM, a kcat [7] of 3.52 s⁻¹ and a kcat/Km [7] of 100000 M⁻¹ s⁻¹.

B8: Zea mays EPSPS variant Zm-T103A (Zea mays; T102A) (protein)
chain: B4 chain with A1M, N61R, V72A, T103A, I161V, Q313E
notes: native maize plus T103A; E. coli BL21(DE3), Ni-NTA purified
B8 gave a Km [8] of 292 µM and a kcat [8] of 7.52 s⁻¹.

B9: Zea mays EPSPS variant Zm-A189T (Zea mays; A188T) (protein)
chain: B4 chain with A1M, N61R, V72A, I161V, A189T, Q313E
In the case of B9, the Km [9] is reported as 307 µM and the kcat [9] is reported as 4.3 s⁻¹.

B10: Zea mays EPSPS variant Zm-T103I (Zea mays; T102I) (protein)
chain: B4 chain with A1M, N61R, V72A, T103I, I161V, Q313E
notes: native maize plus T103I; E. coli BL21(DE3), Ni-NTA purified
B10 showed a Km [10] of 171 µM and a kcat [10] of 5.33 s⁻¹.
